Assay results reported in publication PMC4498383.

Target: apolipoprotein E on the surface of very low-density lipoproteins (human) (UniProt P02649)
Assay: AFM-based force spectroscopy; DENV C covalently attached to the AFM tip; VLDL adsorbed on freshly cleaved mica; TEE-KCl buffer pH 7.4 (20 mM Tris-HCl, 100 mM KCl, 1 mM EDTA, 1 mM EGTA); loading rate 4 nN/s; with or without rabbit anti-human APOE antibody (1 or 100 ug/L) or an isotype-matched control antibody

Sequence of UniProt P02649 (P02649 19-317): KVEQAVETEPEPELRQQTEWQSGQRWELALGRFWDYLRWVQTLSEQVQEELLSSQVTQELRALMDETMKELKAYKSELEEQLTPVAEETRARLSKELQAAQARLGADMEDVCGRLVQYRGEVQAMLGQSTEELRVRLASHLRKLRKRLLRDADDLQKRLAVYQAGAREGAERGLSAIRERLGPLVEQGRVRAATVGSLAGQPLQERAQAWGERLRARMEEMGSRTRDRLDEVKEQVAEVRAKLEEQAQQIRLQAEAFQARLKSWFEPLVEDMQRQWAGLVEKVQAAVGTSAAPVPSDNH

Dengue virus capsid (C) protein (natural protein)
rupture force, 1st Gaussian peak (DENV C-VLDL, no antibody): 29.7 pN | rupture force, 2nd Gaussian peak (DENV C-VLDL, no antibody): 52.1 pN
